In patent publication US20040253709A1:

Molecular target: human IgE (human) (UniProt P01854)
Experiment: Western blots of His tag IPSE incubated with human IgE (100-100,000 ng/ml), compared with IgG; called competitive inhibition experiments in paragraph 33

**Q.** For recombinant His tag IPSE fusion protein, which fold higher affinity than to IgG is on record?
**A.** Its fold higher affinity than to IgG is 100 times.
